Target: synthetic fragment of the mouse TLR-2 extracellular domain (mouse)

Question: With LMDKNLYGYTDEEIFKAS (modifications not checked) [LcrV193-210 synthetic peptide] as the binder, how does the Kd read?
Answer: The Kd was 0.35 nM.

Reference: patent US20060246084A1
